Measurements as given in patent US5091312A.

Substrate: CNCC(=O)O
Experiment: purified protein, by the assay type
Conditions: other: 37° C., pH 8.0

B1: sarcosine oxidase (E.C.1.5.3.1) from Streptomyces sp. KB210-8SY (Streptomyces sp. KB210-8SY) (protein)
chain: SPTYDVIVIGLGGMGSAAAHHLSARGARVLGLEKFGPVHNRGSSHGGSRITRQSYFEDPAYVPLLLRAYELYEELERATGRNVATLCGGVMAGPPDSRTVSGSLRSATEWDLAHEMLDAKEIRRRFPTLAPDDDEVALFEAKAGLLRPENMVAAHLQLATRQGAELRFEEPVLRWEPYRDGVRVHTGENTYTAGQLVICPGAWAPQLLADIGVPITVERQIMYWFQPKGGTGPFVPERHPVYIWEDADGVQVYGFPAIDGPEKGAKVAFFRKGQHTTPETIDRTVHAHEVRAMADHMSALIPDLPGTFLKAATCMYSNTPDEHFVIARHPAHPESVTVACGFSGHGFKFVPVVGEILADLALTGATAHPIGLFDPARLTAPAARGVQP
- Km: 910 µM
